Reference: patent publication US20210309696A1 (ENLITISA SHANGHAI PHARMACEUTICAL, published 2021)
Non-standard residues stand in square brackets, D forms with d. No end group written: not given here. Hyp = O=C(O)[C@@H]1C[C@@H](O)CN1

T1: CysLTR1 (cysteinyl leukotriene receptor CysLT1), expressed in the CYSLTR1/HEK293 cell line (UniProt Q9Y271 1-337, limits assumed)
T1 sequence (looked up): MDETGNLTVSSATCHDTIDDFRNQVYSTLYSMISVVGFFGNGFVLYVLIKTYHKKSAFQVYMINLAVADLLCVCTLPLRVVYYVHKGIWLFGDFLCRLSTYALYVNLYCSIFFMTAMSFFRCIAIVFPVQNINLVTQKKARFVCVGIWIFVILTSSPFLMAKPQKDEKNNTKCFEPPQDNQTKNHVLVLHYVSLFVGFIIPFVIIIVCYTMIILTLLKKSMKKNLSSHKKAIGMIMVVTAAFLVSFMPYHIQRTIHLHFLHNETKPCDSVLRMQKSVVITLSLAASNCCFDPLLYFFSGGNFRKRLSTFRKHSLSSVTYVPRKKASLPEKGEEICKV


Key:
Assay in all cases: cell-based or functional assay
[1] = target: CysLTR1 (cysteinyl leukotriene receptor CysLT1), expressed in the CYSLTR1/HEK293 cell line (UniProt Q9Y271)
[2] = target: T1, CysLTR1 (cysteinyl leukotriene receptor …)
[3] = target: T1, CysLTR1 (cysteinyl leukotriene receptor …); remark: listed apart in the source
[4] = target: T1, CysLTR1 (cysteinyl leukotriene receptor …); remark: listed apart in the source

Row | Molecule | IC50 (nM), in vitro CysLTR1 FLIPR antagonist test (Fluo-4 calcium assay, CYSLTR1/HEK293 cells) [1] | IC50 (nM), in vitro CysLTR1 FLIPR antagonist test (Fluo-4 calcium assay, CYSLTR1/HEK293 cells) [2] | affinity to CysLTR1 relative to Compound A, derived from the FLIPR antagonist IC50s [3] | IC50 (nM), in vitro CysLTR1 FLIPR antagonist test (Fluo-4 calcium assay, CYSLTR1/HEK293 cells), repeat [4]
1 | Montelukast-Ala-Lys-Pro-Ser-Tyr-Hyp-Thr-Tyr-Hyp-Lys (montelukast covalently bonded at the N-terminus) (peptide) | 99.5 nM |  |  | 
2 | {montelukast styrene}-AKPSY[Hyp][Hyp]TYK |  | 475 nM |  | 
3 | montelukast-AKPSY[Hyp][Hyp]TYK |  | 90.5 nM | 5 fold against Compound A | 140 nM
